# In patent publication US20210388087A1 (Chugai, published 2021):
# Where no end group is shown, it is not given here.
# T1: cyno CD137-Fc (cynomolgus monkey; human, limits assumed, biotin-labeled)
# T1 construct: whole entry 92 named; also called biotin-labeled cynomolgus monkey CD137 fused to human IgG1 Fc fragment; not shown: human IgG1 Fc fragment
# T1 chain: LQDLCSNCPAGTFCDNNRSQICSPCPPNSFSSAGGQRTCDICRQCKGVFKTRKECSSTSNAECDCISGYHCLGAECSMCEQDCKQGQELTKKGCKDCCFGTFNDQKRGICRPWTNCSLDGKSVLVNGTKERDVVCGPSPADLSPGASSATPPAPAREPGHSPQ
# T2: Biotin-labeled CD3 epsilon peptide antigen (human, also: biotin-labeled, site not given here)
# T2 construct: also called CD3 peptide
# T2 peptide: QDGNEEMGGITQTPY
# T3: cyno CD137 (cynomolgus monkey, UniProt Q07011 24-186 (human entry), limits assumed)
# T3 construct: also called cynomolgus monkey CD137
# T3 chain: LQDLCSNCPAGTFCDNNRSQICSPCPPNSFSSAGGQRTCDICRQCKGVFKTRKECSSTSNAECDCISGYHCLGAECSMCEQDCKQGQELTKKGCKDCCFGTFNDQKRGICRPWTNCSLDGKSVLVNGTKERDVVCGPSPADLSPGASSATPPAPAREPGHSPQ
# Assays:
# cyno CD137-Fc = target: T1, cyno CD137-Fc; test: bead ELISA, IgG on biotinylated antigen, luminescence;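 also: biotinylated antigen captured on streptavidin magnetic beads, then incubated with purified IgG at 50 ng/µL for 1 h at room temperature before detection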
# human CD137-Fc [1] = target: T4, human CD137-Fc (human, biotin-labeled); test: as above
# T4 construct: if 90 already holds the Fc, drop the second piece; also called biotin-labeled human CD137 fused to human IgG1 Fc fragment; biotin-human CD137-Fc; not shown: human IgG1 Fc fragment
# human CD137-Fc [2] = target: T4, human CD137-Fc; test: bead ELISA on biotin-human CD137-Fc, 0 pmol free CD3e peptide
# human CD137-Fc [3] = target: T4, human CD137-Fc; test: bead ELISA on biotin-human CD137-Fc with 125 pmol/well free CD3e peptide as competitor;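 also: Streptavidin-coated magnetic beads in blocking buffer as the capture surface, well signal read as fluorescence 2 min after adding APS-5 substrate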
# [4] = target: T2, Biotin-labeled CD3 epsilon peptide …; test: bead ELISA, IgG on biotinylated CD3 epsilon peptide, luminescence
# human CD137-Fc [5] = target: T4, human CD137-Fc; test: bead ELISA on biotin-human CD137-Fc, 125 vs 0 pmol free CD3e peptide;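 also: target captured on streptavidin-coated magnetic beads, signal read as fluorescence 2 min after adding APS-5 substrate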
# human CD137-Fc [6] = target: T4, human CD137-Fc; test: bead ELISA on biotin-human CD137-Fc with 62.5 pmol free CD3e peptide as competitor
# human CD137-Fc [7] = target: T4, human CD137-Fc; test: bead ELISA on biotin-human CD137-Fc with 62.5 pmol free human Fc (control competitor)
# human CD137-Fc [8] = target: T4, human CD137-Fc; test: bead ELISA on biotin-human CD137-Fc, free CD3e peptide vs free Fc
# [9] = target: T5, biotin-labeled human CD137 fused to human IgG1 Fc fragment (human, biotin-labeled); test: competitive ELISA on biotin-human CD137-Fc; competitor free CD3e 62.5 pmol
# T5 construct: also called human CD137-Fc; biotin-human CD137-Fc; not shown: human IgG1 Fc fragment
# [10] = target: T5, biotin-labeled human CD137 fused to …; test: competitive ELISA on biotin-human CD137-Fc; free Fc 62.5 pmol (control)
# [11] = target: T5, biotin-labeled human CD137 fused to …; test: competitive ELISA on biotin-human CD137-Fc; free CD3e vs free Fc
# cyno CD137 = target: T3, cyno CD137; test: SPR Biacore T200, IgG captured on protein A, 25 C;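 also: antigens diluted in ACES running buffer at pH 7.4 were flowed over antibodies held on a CM3 chip bearing amine-coupled protein A, with buffer alone serving as blank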
# human CD3 ed = human CD3 ed (human, UniProt P07766 23-126; P04234 22-105, limits assumed); test: SPR Biacore T200, IgG captured on protein A, 25 C;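 also: antigens diluted in ACES running buffer at pH 7.4 were flowed over antibodies held on a CM3 chip bearing amine-coupled protein A, with buffer alone serving as blank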
# human CD137 = human CD137 (human, UniProt Q07011 24-186); test: SPR Biacore T200, IgG captured on protein A, 25 C;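 also: antigens diluted in ACES running buffer at pH 7.4 were flowed over antibodies held on a CM3 chip bearing amine-coupled protein A, with buffer alone serving as blank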
Binder,ELISA signal [9],ELISA signal [10],Signal decrease [11] [%],Kd (cyno CD137) [µM],koff (cyno CD137) [s⁻¹],Kd (human CD3 ed) [µM],koff (human CD3 ed) [s⁻¹],kon (human CD3 ed) [M⁻¹ s⁻¹],Kd (human CD137) [µM],koff (human CD137) [s⁻¹],kon (human CD137) [M⁻¹ s⁻¹],kon (cyno CD137) [M⁻¹ s⁻¹],other results
"DADU01_3#002 (antibody, V domains shown, Human IgG1; light chain GLS3000 (kappa); also called dBBDu124) VH: QVQLVESGGGLVQPGRSLRLSCAASGFTFSNAWMHWVRQAPGKGLEWVAQIKDKQNLYNAYYAESVKGRFTISRDDSKNSIYLQMNSLKTEDTAVYYCHYVHYASASTVLPAFGVDAWGQGTTVTVSS VL: DIVMTQSPLSLPVTPGEPASISCRSSQSLVHSNRNTYLHWYQQKPGQAPRLLIYKVSNRFSGVPDRFSGSGSGTDFTLKISRVEAEDVGVYYCGQGTQVPYTFGQGTKLEIK",,,,,,,,,,,,,RLU (cyno CD137-Fc): 10800 RLU; S/N ratio (cyno CD137-Fc/Fc) (cyno CD137-Fc): 5.6; RLU (human CD137-Fc [1]): 39100 RLU; S/N ratio (human CD137-Fc/Fc) (human CD137-Fc [1]): 20.3; ELISA signal (human CD137-Fc [2]): 6620; ELISA signal (human CD137-Fc [3]): 2120; RLU [4]: 174000 RLU; S/N ratio (CD3 peptide/non coating) [4]: 156; Signal decrease (human CD137-Fc [5]): 68%; ELISA signal (human CD137-Fc [6]): 9970; ELISA signal (human CD137-Fc [7]): 155000; Signal decrease (human CD137-Fc [8]): 93.6%
"dBBDu186/L098 (antibody, V domains shown, IgG format; constant regions not specified) VH: QVQLVESGGGLVQPGRSLRLSCAASGFTFSNAWMHWVRQAPGKGLEWVAQIKDRSNQYATYYAPSVKGRFTISRDDSKNSIYLQMNSLKTEDTAVYYCHYVHYAQASTVLPAFGVDAWGQGTTVTVSS VL: DIVMTQSPLSLPVTPGEPASISCAASEELVHINRYIFLHWYQQKPGQAPRLLIYKVSNRFIGVPDRFSGSGSGTDFTLKISRVEAEDVGVYYCAQGSQVPFTFGQGTKLEIK",15900,115000,86.2,134,0.00119,1.88,0.0209,11100,2.31,0.000534,231,,
"dBBDu186/L106 (antibody, V domains shown, IgG format; constant regions not specified) VH: QVQLVESGGGLVQPGRSLRLSCAASGFTFSNAWMHWVRQAPGKGLEWVAQIKDRSNQYATYYAPSVKGRFTISRDDSKNSIYLQMNSLKTEDTAVYYCHYVHYAQASTVLPAFGVDAWGQGTTVTVSS VL: DIVMTQSPLSLPVTPGEPASISCSTSEELLHINRFIFLHWYQQKPGQAPRLLIYKVANRFMGVPDRFSGSGSGTDFTLKISRVEAEDVGVYYCAQGSQVPFTFGQGTKLEIK",3090,9860,68.7,61.3,0.00126,3.09,0.0318,10300,3.44,0.000447,130,,
"dBBDu189/L119 (antibody, V domains shown, IgG format; constant regions not specified) VH: QVQLVESGGGLVQPGRSLRLSCAASGFTFSNAWMHWVRQAPGKGLEWIAQIKDRSNQYATYYAPSVKGRFTISRDDSKNSIYLQMNSLKTEDTAVYYCHYVHYAQASSLLPSFGVDAWGQGTTVTVSS VL: DIVMTQSPLSLPVTPGEPASISCTASQELVHINRFIFLHWYQQKPGQAPRLLIYKVSNRFIGVPDRFSGSGSGTDFTLKISRVEAEDVGVYYCAQGSQVPFTFGQGTKLEIK",20400,88100,76.9,35.7,0.00122,2.06,0.0258,12500,2.71,0.000402,148,,
"dBBDu189/L126 (antibody, V domains shown, IgG format; constant regions not specified) VH: QVQLVESGGGLVQPGRSLRLSCAASGFTFSNAWMHWVRQAPGKGLEWIAQIKDRSNQYATYYAPSVKGRFTISRDDSKNSIYLQMNSLKTEDTAVYYCHYVHYAQASSLLPSFGVDAWGQGTTVTVSS VL: DIVMTQSPLSLPVTPGEPASISCRTSEELLHINRYIFLHWYQQKPGQAPRLLIYKVQNRFSGVPDRFSGSGSGTDFTLKISRVEAEDVGVYYCAQGSAVPFTFGQGTKLEIK",9750,75100,87,3.06,0.00247,2.57,0.0281,10900,0.513,0.000688,1340,807,
"dBBDu186/L100 (antibody, V domains shown, IgG format; constant regions not specified) VH: QVQLVESGGGLVQPGRSLRLSCAASGFTFSNAWMHWVRQAPGKGLEWVAQIKDRSNQYATYYAPSVKGRFTISRDDSKNSIYLQMNSLKTEDTAVYYCHYVHYAQASTVLPAFGVDAWGQGTTVTVSS VL: DIVMTQSPLSLPVTPGEPASISCSASEELVHINRYIFLHWYQQKPGQAPRLLIYKVYNRFMGVPDRFSGSGSGTDFTLKISRVEAEDVGVYYCGQGSSVPFTFGQGTKLEIK",88900,102000,13,70.4,0.00208,3.36,0.0546,16200,1.91,0.000746,391,,
"dBBDu193/L127 (antibody, V domains shown, IgG format; constant regions not specified; also called dBBDu_193 dBBDu.L127) VH: QVQLVESGGGLVQPGRSLRLSCAASGFTFSNAWMHWVRQAPGKGLEWVAQIKDRSNQYATYYAPSVKGRFTISRDDSKNSIYLQMNSLKTEDTAVYYCHYVHYSAASTLLPSFGVDAWGQGTTVTVSS VL: DIVMTQSPLSLPVTPGEPASISCRASEELLHINRHIFLHWYQQKPGQAPRLLIYKVYNRFTGVPDRFSGSGSGTDFTLKISRVEAEDVGVYYCAQGTSVPFTFGQGTKLEIK",2470,6080,59.4,28.1,0.00316,1.51,0.0191,12600,3.3,0.00145,440,112,
"dBBDu186/L108 (antibody, V domains shown, IgG format; constant regions not specified) VH: QVQLVESGGGLVQPGRSLRLSCAASGFTFSNAWMHWVRQAPGKGLEWVAQIKDRSNQYATYYAPSVKGRFTISRDDSKNSIYLQMNSLKTEDTAVYYCHYVHYAQASTVLPAFGVDAWGQGTTVTVSS VL: DIVMTQSPLSLPVTPGEPASISCRTSEELLHINRFTFLHWYQQKPGQAPRLLIYKVSNRFMGVPDRFSGSGSGTDFTLKISRVEAEDVGVYYCAQGSAVPFTFGQGTKLEIK",50800,83600,39.2,16.1,0.00361,3.01,0.0408,13600,2.41,0.00081,335,225,
"dBBDu193/L132 (antibody, V domains shown, IgG format; constant regions not specified; also called dBBDu_193 dBBDu.L132) VH: QVQLVESGGGLVQPGRSLRLSCAASGFTFSNAWMHWVRQAPGKGLEWVAQIKDRSNQYATYYAPSVKGRFTISRDDSKNSIYLQMNSLKTEDTAVYYCHYVHYSAASTLLPSFGVDAWGQGTTVTVSS VL: DIVMTQSPLSLPVTPGEPASISCQTSEELVHINRFIFLHWYQQKPGQAPRLLIYKVSNRFSGVPDRFSGSGSGTDFTLKISRVEAEDVGVYYCAQGTSVPFTFGQGTKLEIK",10400,116000,91,757,0.0061,2.03,0.0201,9890,4.48,0.00211,471,,
"anti-human CD137 antibody described in WO2005/035584A1 (abbreviated as B) (antibody, V domains shown, Control antibody; also called control anti-CD137 antibody) VH: QVQLQQWGAGLLKPSETLSLTCAVYGGSFSGYYWSWIRQSPEKGLEWIGEINHGGYVTYNPSLESRVTISVDTSKNQFSLKLSSVTAADTAVYYCARDYGPGNYDWYFDLWGRGTLVTVSS VL: EIVLTQSPATLSLSPGERATLSCRASQSVSSYLAWYQQKPGQAPRLLIYDASNRATGIPARFSGSGSGTDFTLTISSLEPEDFAVYYCQQRSNWPPALTFGGGTKVEIK",,,,,,,,,,,,,ELISA signal (human CD137-Fc [2]): 99400; ELISA signal (human CD137-Fc [3]): 98100; Signal decrease (human CD137-Fc [5]): 1.26%; ELISA signal (human CD137-Fc [6]): 183000; ELISA signal (human CD137-Fc [7]): 184000; Signal decrease (human CD137-Fc [8]): 0.94%
